The Human Domainome abundance scans (Beltran et al. 2025)
± gives the uncertainty stated by the source.

B1: WW domain-binding protein 4, residues 8 to 43; numbered along this chain, O75554 (parent)
chain: QPKKFCDYCKCWIADNRPSVEFHERGKNHKENVAKR

Variants of: B1
Test: abundance fitness (aPCA) (normalised: wild type 0, dead -1); higher = more abundant; growth selection in yeast, the domain comes from the species named
Conditions: Homo sapiens

Row | Variant | abundance fitness
1 | QPKKFCDYCKCTIADNRPSVEFHERGKNHKENVAKR [W12T] | -0.066 ± 0.079
2 | QPKKFCDYCKCHIADNRPSVEFHERGKNHKENVAKR [W12H] | 0.339 ± 0.3
3 | QPKKFCDYCKCSIADNRPSVEFHERGKNHKENVAKR [W12S] | -0.261 ± 0.081
4 | QPKKFCDYCKCPIADNRPSVEFHERGKNHKENVAKR [W12P] | 0.188 ± 0.22
5 | QPKKFCDYCKCIIADNRPSVEFHERGKNHKENVAKR [W12I] | 0.139 ± 0.15
6 | QPKKFCDYCKCAIADNRPSVEFHERGKNHKENVAKR [W12A] | -0.209 ± 0.078
7 | QPKKFCDYCKCRIADNRPSVEFHERGKNHKENVAKR [W12R] | -0.537 ± 0.064
8 | QPKKFCDYCKCFIADNRPSVEFHERGKNHKENVAKR [W12F] | -0.165 ± 0.24
9 | QPKKFCDYCKCCIADNRPSVEFHERGKNHKENVAKR [W12C] | -0.437 ± 0.097
10 | QPKKFCDYCKCKIADNRPSVEFHERGKNHKENVAKR [W12K] | -0.557 ± 0.14
11 | QPKKFCDYCKCEIADNRPSVEFHERGKNHKENVAKR [W12E] | -0.238 ± 0.083
12 | QPKKFCDYCKCLIADNRPSVEFHERGKNHKENVAKR [W12L] | -0.087 ± 0.068
13 | QPKKFCDYCKCDIADNRPSVEFHERGKNHKENVAKR [W12D] | -0.219 ± 0.079
14 | QPKKFCDYCKCGIADNRPSVEFHERGKNHKENVAKR [W12G] | -0.331 ± 0.06
15 | QPKKFCDYCKCMIADNRPSVEFHERGKNHKENVAKR [W12M] | 0.075 ± 0.11
16 | QPKKFCDYCKCQIADNRPSVEFHERGKNHKENVAKR [W12Q] | 0.077 ± 0.12
17 | QPKKFCDYCKCWIARNRPSVEFHERGKNHKENVAKR [D15R] | -0.328 ± 0.068
18 | QPKKFCDYCKCWIATNRPSVEFHERGKNHKENVAKR [D15T] | -0.075 ± 0.096
19 | QPKKFCDYCKCWIACNRPSVEFHERGKNHKENVAKR [D15C] | -0.48 ± 0.086
20 | QPKKFCDYCKCWIAPNRPSVEFHERGKNHKENVAKR [D15P] | -0.186 ± 0.083
21 | QPKKFCDYCKCWIANNRPSVEFHERGKNHKENVAKR [D15N] | -0.249 ± 0.29
22 | QPKKFCDYCKCWIAWNRPSVEFHERGKNHKENVAKR [D15W] | -0.391 ± 0.065
23 | QPKKFCDYCKCWIASNRPSVEFHERGKNHKENVAKR [D15S] | -0.236 ± 0.074

Row | Variant | abundance fitness
24 | QPKKFCDYCKCWIAGNRPSVEFHERGKNHKENVAKR [D15G] | -0.09 ± 0.055
25 | QPKKFCDYCKCWIALNRPSVEFHERGKNHKENVAKR [D15L] | -0.332 ± 0.08
26 | QPKKFCDYCKCWIAMNRPSVEFHERGKNHKENVAKR [D15M] | -0.128 ± 0.17
27 | QPKKFCDYCKCWIAVNRPSVEFHERGKNHKENVAKR [D15V] | -0.313 ± 0.068
28 | QPKKFCDYCKCWIAFNRPSVEFHERGKNHKENVAKR [D15F] | -0.235 ± 0.11
29 | QPKKFCDYCKCWIAHNRPSVEFHERGKNHKENVAKR [D15H] | -0.37 ± 0.24
30 | QPKKFCDYCKCWIAKNRPSVEFHERGKNHKENVAKR [D15K] | -0.367 ± 0.092
31 | QPKKFCDYCKCWIAQNRPSVEFHERGKNHKENVAKR [D15Q] | -0.262 ± 0.27
32 | QPKKFCDYCKCWIAANRPSVEFHERGKNHKENVAKR [D15A] | -0.145 ± 0.07
33 | QPKKFCDYCKCWIADNKPSVEFHERGKNHKENVAKR [R17K] | -0.098 ± 0.15
34 | QPKKFCDYCKCWIADNTPSVEFHERGKNHKENVAKR [R17T] | -0.03 ± 0.11
35 | QPKKFCDYCKCWIADNMPSVEFHERGKNHKENVAKR [R17M] | 0.176 ± 0.085
36 | QPKKFCDYCKCWIADNCPSVEFHERGKNHKENVAKR [R17C] | 0.118 ± 0.099
37 | QPKKFCDYCKCWIADNLPSVEFHERGKNHKENVAKR [R17L] | -0.015 ± 0.073
38 | QPKKFCDYCKCWIADNHPSVEFHERGKNHKENVAKR [R17H] | -0.148 ± 0.14
39 | QPKKFCDYCKCWIADNEPSVEFHERGKNHKENVAKR [R17E] | -0.011 ± 0.067
40 | QPKKFCDYCKCWIADNSPSVEFHERGKNHKENVAKR [R17S] | 0.052 ± 0.073
41 | QPKKFCDYCKCWIADNYPSVEFHERGKNHKENVAKR [R17Y] | -0.235 ± 0.11
42 | QPKKFCDYCKCWIADNNPSVEFHERGKNHKENVAKR [R17N] | -0.019 ± 0.11
43 | QPKKFCDYCKCWIADNQPSVEFHERGKNHKENVAKR [R17Q] | -0.008 ± 0.12
44 | QPKKFCDYCKCWIADNPPSVEFHERGKNHKENVAKR [R17P] | 0.253 ± 0.078
45 | QPKKFCDYCKCWIADNGPSVEFHERGKNHKENVAKR [R17G] | 0.005 ± 0.061
46 | QPKKFCDYCKCWIADNDPSVEFHERGKNHKENVAKR [R17D] | 0.068 ± 0.096

Row | Variant | abundance fitness
47 | QPKKFCDYCKCWIADNWPSVEFHERGKNHKENVAKR [R17W] | -0.389 ± 0.074
48 | QPKKFCDYCKCWIADNAPSVEFHERGKNHKENVAKR [R17A] | 0.036 ± 0.063
49 | QPKKFCDYCKCWIADNVPSVEFHERGKNHKENVAKR [R17V] | 0.008 ± 0.067
50 | QPKKFCDYCKCWIADNRPSCEFHERGKNHKENVAKR [V20C] | -0.574 ± 0.12
51 | QPKKFCDYCKCWIADNRPSAEFHERGKNHKENVAKR [V20A] | 0.05 ± 0.069
52 | QPKKFCDYCKCWNADNRPSVEFHERGKNHKENVAKR [I13N] | -0.308 ± 0.16
53 | QPKKFCDYCKCWCADNRPSVEFHERGKNHKENVAKR [I13C] | -0.427 ± 0.074
54 | QPKKFCDYCKCWDADNRPSVEFHERGKNHKENVAKR [I13D] | -0.171 ± 0.18
55 | QPKKFCDYCKCWSADNRPSVEFHERGKNHKENVAKR [I13S] | -0.473 ± 0.085
56 | QPKKFCDYCKCWYADNRPSVEFHERGKNHKENVAKR [I13Y] | 0.334 ± 0.19
57 | QPKKFCDYCKCWQADNRPSVEFHERGKNHKENVAKR [I13Q] | -0.529 ± 0.085
58 | QPKKFCDYCKCWHADNRPSVEFHERGKNHKENVAKR [I13H] | -0.368 ± 0.12
59 | QPKKFCDYCKCWEADNRPSVEFHERGKNHKENVAKR [I13E] | -0.226 ± 0.08
60 | QPKKFCDYCKCWTADNRPSVEFHERGKNHKENVAKR [I13T] | -0.261 ± 0.096
61 | QPKKFCDYCKCWVADNRPSVEFHERGKNHKENVAKR [I13V] | -0.089 ± 0.12
62 | QPKKFCDYCKCWLADNRPSVEFHERGKNHKENVAKR [I13L] | -0.236 ± 0.078
63 | QPKKFCDYCKCWAADNRPSVEFHERGKNHKENVAKR [I13A] | -0.531 ± 0.091
64 | QPKKFCDYCKCWGADNRPSVEFHERGKNHKENVAKR [I13G] | -0.449 ± 0.071
65 | QPKKFCDYCKCWMADNRPSVEFHERGKNHKENVAKR [I13M] | 0.209 ± 0.082
66 | QPKKFCDYCKCWKADNRPSVEFHERGKNHKENVAKR [I13K] | -0.853 ± 0.12
67 | QPKKFCDYCKCWPADNRPSVEFHERGKNHKENVAKR [I13P] | -0.488 ± 0.069
68 | QPKKFCDYCKCWRADNRPSVEFHERGKNHKENVAKR [I13R] | -0.532 ± 0.077
